Target: SDF-1 receptor CXCR4 on INS-1 clonal beta cells (UniProt O08565)
Assay: cell-based or functional assay

SDF-1 receptor CXCR4 on INS-1 clonal beta cells, sequence (O08565 whole entry): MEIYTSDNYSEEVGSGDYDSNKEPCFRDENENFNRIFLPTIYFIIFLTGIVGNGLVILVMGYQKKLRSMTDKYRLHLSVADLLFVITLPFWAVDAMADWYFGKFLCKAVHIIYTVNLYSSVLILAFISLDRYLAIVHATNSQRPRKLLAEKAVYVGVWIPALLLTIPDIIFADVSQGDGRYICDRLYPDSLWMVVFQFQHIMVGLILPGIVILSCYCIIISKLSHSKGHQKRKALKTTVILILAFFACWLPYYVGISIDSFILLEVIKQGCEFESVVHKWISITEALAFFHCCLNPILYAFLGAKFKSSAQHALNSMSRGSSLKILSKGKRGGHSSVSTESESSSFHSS

A Wnt signaling reporter assay (TOPflash/FOPflash luciferase) in INS-1 cells of 0.4 nM was found for “stromal cell-derived factor-1 (SDF-1) (ligand)” in this work.

Reference: patent US20120053119A1, “THERAPEUTIC METHOD FOR INCREASING PANCREATIC BETA CELL MASS” (priority 2009, published 2012)
